Laboratory results reported in paper PMC4117452, “Immunolocalization of Anti-Hsf1 to the Acetabular Glands of Infectious Schistosomes Suggests a Non-Transcriptional Function for This Transcriptional Activator”.

Molecular target: T1, MBP-SmHsf1 (Schistosoma mansoni, UniProt G4VTC5 1-658)
T1 sequence: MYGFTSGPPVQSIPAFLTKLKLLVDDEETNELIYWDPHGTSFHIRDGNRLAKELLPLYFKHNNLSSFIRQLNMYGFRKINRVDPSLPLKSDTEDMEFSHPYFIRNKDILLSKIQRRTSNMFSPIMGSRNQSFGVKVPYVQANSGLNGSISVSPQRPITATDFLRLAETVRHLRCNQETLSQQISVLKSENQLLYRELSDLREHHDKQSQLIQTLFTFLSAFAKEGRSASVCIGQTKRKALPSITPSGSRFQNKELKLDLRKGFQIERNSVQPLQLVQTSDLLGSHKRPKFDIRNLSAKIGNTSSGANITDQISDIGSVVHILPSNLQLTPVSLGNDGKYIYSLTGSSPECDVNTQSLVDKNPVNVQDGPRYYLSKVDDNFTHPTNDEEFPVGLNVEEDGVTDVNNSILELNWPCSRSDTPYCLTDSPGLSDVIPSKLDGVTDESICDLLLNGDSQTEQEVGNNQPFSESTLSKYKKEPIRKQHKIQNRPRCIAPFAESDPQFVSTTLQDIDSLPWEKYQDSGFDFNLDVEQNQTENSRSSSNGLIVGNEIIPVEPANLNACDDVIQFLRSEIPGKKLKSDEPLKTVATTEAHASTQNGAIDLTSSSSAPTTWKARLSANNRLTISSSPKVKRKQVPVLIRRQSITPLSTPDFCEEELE
Assay: competition; EMSA vs oKI068(ds), 250-fold unlabeled; 'great affinity'; LightShift EMSA binding buffer with glycerol, MgCl2, poly-dIdC, NP-40 (concentrations, pH and temperature not stated), 30 min; 5% native PAGE, 0.5x TBE
Conditions: protein: recombinant; tags: N-terminal MBP (pMAL-c5X); chain copies: 3; blunt

B1: oKI073/074 consensus HSE (dsDNA)
DNA 1: GATCGTCATAGAAAGTTCTAGAACGATC
DNA 2: GATCGTTCTAGAACTTTCTATGACGATC
binding result: binds
